This is an account of results in the supplement of paper PMC9112550, “Optimization of the antimicrobial peptide Bac7 by deep mutational scanning” (BMC Biology, 2022).

This data set concerns Escherichia coli TOP10. As to the kind of experiment: shrunken log2 fold change of peptide-encoding DNA abundance (4.5 h post-induction vs induction); higher = less antimicrobial activity (less host growth inhibition). The conditions noted are these: time post-induction: 4.5 h; library: site-saturation at positions 5, 18, 19, 20.
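Further: peptides expressed intracellularly from a pBAD plasmid library in pooled LB shake-flask culture, induced with 0.3% L-arabinose, DNA abundance read by NGS, three biological replicates, DESeq2 with apeglm shrinkage.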

On to RRIRKRPPRLPRPRPRPCIKPRP, for which the “shrunken log2 fold change” value came out at 0.193. The figure for RRIRLRPPRLPRPRPRPADKPRP is 0.122; for RRIRMRPPRLPRPRPRPNAFPRP it is 0.344. The figure for RRIRTRPPRLPRPRPRPDWNPRP is -0.39; for RRIRQRPPRLPRPRPRPIEIPRP it is -0.0062; for RRIRCRPPRLPRPRPRPPAQPRP it is 1.18. Take RRIRSRPPRLPRPRPRPMMQPRP: the “shrunken log2 fold change” value is -0.241. The figure for RRIRGRPPRLPRPRPRPAYCPRP is 0.114; for RRIRKRPPRLPRPRPRPNVEPRP it is 0.192. The figure for RRIRNRPPRLPRPRPRPKKRPRP is 0.201. The same measure for RRIRYRPPRLPRPRPRPVSIPRP: -0.821. With RRIRVRPPRLPRPRPRPDSVPRP, the “shrunken log2 fold change” value was -0.28.

For the sequence RRIRWRPPRLPRPRPRPYWTPRP, the “shrunken log2 fold change” value was -0.175. The figure for RRIRQRPPRLPRPRPRPPVEPRP is 0.265. The same measure for RRIRVRPPRLPRPRPRPRTHPRP: 0.199. The same measure for RRIRVRPPRLPRPRPRPTCWPRP: 0.835; for RRIRYRPPRLPRPRPRPQIPPRP: -0.17. Regarding RRIRVRPPRLPRPRPRPPASPRP, the “shrunken log2 fold change” value turned out to be 0.398. The figure for RRIRPRPPRLPRPRPRPMWRPRP is -0.0622; for RRIRGRPPRLPRPRPRPSMDPRP it is 0.0712; for RRIRIRPPRLPRPRPRPPCAPRP it is 0.201.

Consider RRIRGRPPRLPRPRPRPVWTPRP, for which the “shrunken log2 fold change” value is 0.674.

Regarding RRIRPRPPRLPRPRPRPARIPRP, the “shrunken log2 fold change” value was 0.14. The figure for RRIRGRPPRLPRPRPRPYRVPRP is -0.0183; for RRIRGRPPRLPRPRPRPYIDPRP it is 0.093; for RRIRCRPPRLPRPRPRPCLGPRP it is -0.224. For the sequence RRIRTRPPRLPRPRPRPGRRPRP, the “shrunken log2 fold change” value stood at 0.244. The figure for RRIRNRPPRLPRPRPRPKCRPRP is 0.0642; for RRIRERPPRLPRPRPRPGYTPRP it is 0.0628. Turning to RRIRFRPPRLPRPRPRPRQTPRP, the “shrunken log2 fold change” value is -0.0912. The figure for RRIRSRPPRLPRPRPRPFEEPRP is -0.345; for RRIRFRPPRLPRPRPRPVMKPRP it is -0.189; for RRIRKRPPRLPRPRPRPHRHPRP it is 0.023.

Take RRIRCRPPRLPRPRPRPIEQPRP: the “shrunken log2 fold change” value came to 0.0493. The figure for RRIRMRPPRLPRPRPRPYHDPRP is -0.256; for RRIRVRPPRLPRPRPRPLCEPRP it is -0.131.

On to RRIRHRPPRLPRPRPRPKGQPRP, for which the “shrunken log2 fold change” value is -0.00141. The figure for RRIRSRPPRLPRPRPRPFVYPRP is -0.368.

In the case of RRIRERPPRLPRPRPRPDSRPRP, the “shrunken log2 fold change” value is -0.0302. The same measure for RRIRGRPPRLPRPRPRPWTTPRP: 0.00743; for RRIRIRPPRLPRPRPRPSEFPRP: -0.177; for RRIRRRPPRLPRPRPRPTMHPRP: 0.539. As to RRIRVRPPRLPRPRPRPNCLPRP, the “shrunken log2 fold change” value is -0.105. The same measure for RRIRNRPPRLPRPRPRPDEMPRP: -0.00822; for RRIRNRPPRLPRPRPRPQHEPRP: -0.0581.

In the case of RRIRERPPRLPRPRPRPMGPPRP, the “shrunken log2 fold change” value was -0.0976. The same measure for RRIRGRPPRLPRPRPRPVLQPRP: 0.142; for RRIRCRPPRLPRPRPRPDMCPRP: -0.13; for RRIRLRPPRLPRPRPRPKFFPRP: 0.002.

For RRIRPRPPRLPRPRPRPWCDPRP, the “shrunken log2 fold change” value was -0.301. The figure for RRIRKRPPRLPRPRPRPGTFPRP is 0.253. As to RRIRCRPPRLPRPRPRPSNAPRP, the “shrunken log2 fold change” value was -0.572. The same measure for RRIRARPPRLPRPRPRPFLWPRP: -0.0716; for RRIRYRPPRLPRPRPRPCLAPRP: -0.838; for RRIRCRPPRLPRPRPRPVTAPRP: 0.108. The same measure for RRIRLRPPRLPRPRPRPKYAPRP: 0.0149; for RRIRFRPPRLPRPRPRPFIIPRP: -0.816. In the case of RRIRRRPPRLPRPRPRPLPGPRP, the “shrunken log2 fold change” value is 0.59. The same measure for RRIRSRPPRLPRPRPRPHPIPRP: -0.214.

RRIRFRPPRLPRPRPRPTMDPRP: the “shrunken log2 fold change” value is -0.246. The same measure for RRIRARPPRLPRPRPRPCHRPRP: 0.0386; for RRIRRRPPRLPRPRPRPTNEPRP: 0.0166. Consider RRIRERPPRLPRPRPRPAPWPRP, for which the “shrunken log2 fold change” value turned out to be 0.203. The figure for RRIRYRPPRLPRPRPRPWGWPRP is -0.0384.

Take RRIRKRPPRLPRPRPRPCQCPRP: the “shrunken log2 fold change” value was -0.0903.

Turning to RRIRPRPPRLPRPRPRPMERPRP, the “shrunken log2 fold change” value is -0.0425.

Take RRIRHRPPRLPRPRPRPYFNPRP: the “shrunken log2 fold change” value was -0.882. The figure for RRIRPRPPRLPRPRPRPKACPRP is 0.255; for RRIRHRPPRLPRPRPRPTYHPRP it is -0.514. The figure for RRIRLRPPRLPRPRPRPDDAPRP is -0.115. The same measure for RRIRERPPRLPRPRPRPFVGPRP: -0.143; for RRIRARPPRLPRPRPRPYWEPRP: -0.312; for RRIRIRPPRLPRPRPRPRTKPRP: 0.161. As for RRIRNRPPRLPRPRPRPHCEPRP, the “shrunken log2 fold change” value is -0.778. Take RRIRDRPPRLPRPRPRPKTNPRP: the “shrunken log2 fold change” value is -0.0796. Regarding RRIRHRPPRLPRPRPRPEMQPRP, the “shrunken log2 fold change” value is -0.000952.

RRIRQRPPRLPRPRPRPMQIPRP: the “shrunken log2 fold change” value was determined as 0.0201.

As for RRIRHRPPRLPRPRPRPDDRPRP, the “shrunken log2 fold change” value was -0.144. The same measure for RRIRKRPPRLPRPRPRPHYLPRP: 0.0182; for RRIRCRPPRLPRPRPRPVKSPRP: 0.967.

RRIRWRPPRLPRPRPRPAKWPRP: the “shrunken log2 fold change” value was found to be 0.386. The same measure for RRIRCRPPRLPRPRPRPVQFPRP: 0.13; for RRIRSRPPRLPRPRPRPEKRPRP: -0.0813.

With RRIRHRPPRLPRPRPRPHLIPRP, the “shrunken log2 fold change” value was -0.097. The figure for RRIRMRPPRLPRPRPRPNNPPRP is 0.395; for RRIRVRPPRLPRPRPRPMIRPRP it is -0.147. As for RRIRVRPPRLPRPRPRPWQMPRP, the “shrunken log2 fold change” value was -0.00669. With RRIRFRPPRLPRPRPRPNDNPRP, the “shrunken log2 fold change” value was -0.616. Turning to RRIRTRPPRLPRPRPRPYRSPRP, the “shrunken log2 fold change” value was 0.0429. As for RRIRGRPPRLPRPRPRPFAIPRP, the “shrunken log2 fold change” value is -0.0466. The figure for RRIRNRPPRLPRPRPRPGWCPRP is 2.24. The figure for RRIRDRPPRLPRPRPRPHFQPRP is -0.236; for RRIRFRPPRLPRPRPRPVYHPRP it is -1.19.

Consider RRIRFRPPRLPRPRPRPSSWPRP, for which the “shrunken log2 fold change” value is -0.105. The figure for RRIRLRPPRLPRPRPRPDQCPRP is -0.0609. The figure for RRIRGRPPRLPRPRPRPFNDPRP is -0.753. With RRIRNRPPRLPRPRPRPTWYPRP, the “shrunken log2 fold change” value was 0.0037. The figure for RRIRDRPPRLPRPRPRPTIHPRP is -0.128; for RRIRSRPPRLPRPRPRPPKIPRP it is -0.0117; for RRIRGRPPRLPRPRPRPTTRPRP it is 0.79. The figure for RRIRFRPPRLPRPRPRPEFYPRP is 0.0551; for RRIRCRPPRLPRPRPRPKRPPRP it is 0.158; for RRIRWRPPRLPRPRPRPEMWPRP it is 1.05. The same measure for RRIRARPPRLPRPRPRPHGSPRP: -0.071. For RRIRDRPPRLPRPRPRPTCGPRP, the “shrunken log2 fold change” value was 1.11. The same measure for RRIRNRPPRLPRPRPRPYPLPRP: -0.042. Consider RRIRQRPPRLPRPRPRPKWIPRP, for which the “shrunken log2 fold change” value is -0.0524. The same measure for RRIRLRPPRLPRPRPRPHDAPRP: -0.0938; for RRIRTRPPRLPRPRPRPCPIPRP: -0.0712; for RRIRHRPPRLPRPRPRPPFMPRP: 0.0707. RRIRKRPPRLPRPRPRPWNWPRP: the “shrunken log2 fold change” value was -0.00973.

RRIRDRPPRLPRPRPRPKQIPRP: the “shrunken log2 fold change” value was -0.0135. The same measure for RRIRSRPPRLPRPRPRPYYEPRP: -0.628; for RRIRSRPPRLPRPRPRPAFSPRP: -0.145. The same measure for RRIRTRPPRLPRPRPRPWSAPRP: -0.152.

In the case of RRIRTRPPRLPRPRPRPYTGPRP, the “shrunken log2 fold change” value was -0.0567. The figure for RRIRYRPPRLPRPRPRPEITPRP is -0.295; for RRIRQRPPRLPRPRPRPQMSPRP it is -0.0844; for RRIRPRPPRLPRPRPRPQALPRP it is 0.339.

Regarding RRIRPRPPRLPRPRPRPTGHPRP, the “shrunken log2 fold change” value amounted to 0.0828. Regarding RRIRYRPPRLPRPRPRPYSNPRP, the “shrunken log2 fold change” value was -0.127. Regarding RRIRKRPPRLPRPRPRPVDTPRP, the “shrunken log2 fold change” value was found to be 0.0388. For the sequence RRIRMRPPRLPRPRPRPSTTPRP, the “shrunken log2 fold change” value amounted to 0.352. Take RRIRYRPPRLPRPRPRPNVTPRP: the “shrunken log2 fold change” value is -0.573. The same measure for RRIRKRPPRLPRPRPRPCRGPRP: -0.115.
